In patent publication WO2019131769A1 (dated 2019):
Ends that are not written are not given here.

T1: BSA-modified peptide antigen FFTYHIRHGEVHC (SEQ ID NO: 1) (human, also: BSA carrier conjugate)
T1 construct: also called peptide corresponding to positions 633-644 of PAD4
T1 peptide: FFTYHIRHGEVHC


Experiments:
[1] = target: T2, human PAD4 (Peptidylarginine deiminase 4) (human, UniProt Q9UM07 1-663); test: cell-based or functional assay
[2] = target: T2, human PAD4 (Peptidylarginine deiminase …); test: SPR (Biacore T200), antibody captured on rabbit anti-mouse polyclonal antibody on CM5 chip, human PAD4 as analyte
[3] = target: T1, BSA-modified peptide antigen …; test: ELISA, culture supernatant of CHO cells on immobilised BSA-modified peptide

T2 sequence (Q9UM07 whole entry): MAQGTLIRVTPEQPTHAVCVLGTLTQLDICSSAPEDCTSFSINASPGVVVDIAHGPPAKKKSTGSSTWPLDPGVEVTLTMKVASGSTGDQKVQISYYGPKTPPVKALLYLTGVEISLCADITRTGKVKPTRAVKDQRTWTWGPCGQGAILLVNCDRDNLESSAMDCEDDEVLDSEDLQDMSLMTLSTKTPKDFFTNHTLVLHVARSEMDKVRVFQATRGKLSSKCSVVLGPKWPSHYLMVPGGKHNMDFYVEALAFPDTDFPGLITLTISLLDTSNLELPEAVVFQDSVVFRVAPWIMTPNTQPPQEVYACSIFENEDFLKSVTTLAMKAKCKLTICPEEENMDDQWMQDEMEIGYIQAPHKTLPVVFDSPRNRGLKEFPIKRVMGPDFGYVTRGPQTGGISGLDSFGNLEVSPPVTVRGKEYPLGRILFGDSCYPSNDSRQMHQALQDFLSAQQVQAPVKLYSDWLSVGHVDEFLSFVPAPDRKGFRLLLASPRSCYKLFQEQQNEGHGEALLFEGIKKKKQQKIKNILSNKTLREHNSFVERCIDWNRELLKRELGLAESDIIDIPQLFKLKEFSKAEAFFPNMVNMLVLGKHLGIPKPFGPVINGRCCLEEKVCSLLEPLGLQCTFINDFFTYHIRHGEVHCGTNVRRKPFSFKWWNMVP

Row | inhibition rate of citrullinating activity of active PAD4 (BAEE substrate, colorimetric) [1] [%] | Kd [2] [nM] | binding result [3] | Binder
1 | 80 | 24 | binds | P3 (antibody, V domains shown, Chicken variable regions recombined into mouse chimeric antibody (IgG1) expression vectors; also called anti-PAD4 antibody P3; P1 etc) VH: AVTLDESGGGLQTPGGGLSLICKASGSTIRSYAMNWVRQAPGKGLEFVAGIDNSGRYTNYGAAVKGRATISRDNGQSTVRLQLNNLRAEDTGIYYCAKNVDVAGYGCDWSSGCIDTWGHGTEVIVS VL: ASTQPASVSANPGETVKITCSGGSSTYYGWYQQKSPGSAPVTVIYENTNRPSDIPSRFSGSKSGSTATLTITGVQADDEAVYFCGGYDRTNYAGIFGAGTTLTVL
2 | 82 | 15 |  | P4 (antibody, V domains shown, Chicken variable regions recombined into mouse chimeric antibody (IgG1) expression vectors; also called anti-PAD4 antibody P4; P1 etc) VH: AVTLDESGGGLQTPGGGLSLICKASGFSMRSYAMNWVRQAPGKGLEFVAGIDNTGRYTGYGSAVKGRATISRDNGQSTVRLQLNNLRAEDTGTYYCAKNVDVAGSGCDWSSGCIDAWGHGTEVTVS VL: ASTQPSSVSANPGETVKITCSGGSSTYYGWYQQKSPGSAPVTVIYQNTKRPSGLSSRFSGSKSGSTATLTITGVQAEDEAVYFCGGYDTRTYAGIFGAGTTLTVL

Further lines, the binder ahead of its results:

Row | Binder | inhibition rate of citrullinating activity of active PAD4 (BAEE substrate, colorimetric) [1] [%] | Kd [2] [nM] | binding result [3]
3 | P1 (antibody, V domains shown, Chicken variable regions recombined into mouse chimeric antibody (IgG1) expression vectors; also called anti-PAD4 antibody P1; P1 etc) VH: AVTLDESGGGLQTPGGGLSLICKASGFHMRSYAMNWVRQAPGKGLEFVAGIDNSGRYRNYGAAVKGRATISRDNGQSTVRLQLNNLRAEDTGIYYCAKNFDVGGDGCDWSSGCIDAWGHGTEVIVS VL: ASTQPSSVSANPGETVKITCSGGSSTYYGWYQQKSPGSAPVTVIYQNTKRPSGLSSRFSGSKSGSTATLTITGVQAEDEAVYFCGGYDTRTYAGIFGAGTTLTVL | 63 | 73 | 
4 | P2 (antibody, V domains shown, Chicken variable regions recombined into mouse chimeric antibody (IgG1) expression vectors; also called anti-PAD4 antibody P2; P1 etc) VH: AVTLDESGGGLQTPGGALSLVCKASGFHMRSYAMNWVRQAPGKGLEFVAGIDNSGRYRNYGAAVKGRATISRDNGQSTVRLQLNNLRAEDTGIYYCAKNFDVGGDGCDWSSGCIDAWGHGTEVIVS VL: ASTQPASVSANPGETVKITCSGGSSTYYGWYQQKSPGSAPVTVIYQNTNRPSDIPSRFSGSKSGSTATLTITGVQAEDEAVYFCGGYDRSNYAGIFGAGTTLTVL | 62 | 31 | binds
